Experimental data taken from article PMC10714721.
“And” between values parts separate entries of the source, which are not always exact repeats. Equal entries are not always repeated.

Molecular target: histidine-tagged VfmH (Dickeya dadantii)
Experiment: not stated; oligomerization pattern of VfmH with or without c-di-GMP or ATP (Fig. S5); method not given

histidine-tagged VfmH (natural protein)
stoichiometry N: 6 and 2 and 3
